Test system: primary cortical neurons (PCNs)
Assay: Aβ neurotoxicity in primary cortical neurons, WST-8 / Calcein / LDH
Assay type: cell-based, mouse
Details: 25 μM Aβ; for inhibition of neurotoxicity by Aβ: cytokine alone, physiological levels (up to 100 ng/ml)
Method: B) PCNs were incubated with 25 μM Aβ (upper) in the presence of 10 μg of recombinant soluble human gp130 (lower “+”) or BSA (lower “−”). Cell viability was determined by WST-8 assay (upper) or Calcein fluorescence assay (lower) at 72 hr after the onset of treatment with Aβ.
C) PCNs were incubated with 25 μM Aβ (1-43) in the presence of 1 μg of neutralizing anti-mouse gp130 antibody (RX435) or control IgG. Cell viability and cell mortality were determined by Calcein fluorescence (left panel) and LDH assays (right panel), respectively, at 72 hr after the onset of treatment with Aβ (1-43).
[…] At 72 hr after incubation, the cells were harvested for WST-8 assays or/and Calcein fluorescence assays to show cell viability.
B) The soluble IL-6 receptor-α (sIL-6R) or the soluble CNTF-R (100 ng/ml) were added to the cells as in the above A), followed by the stimulation with its ligand, IL-6 or CNTF (100 ng/ml), respectively to show the effects on the neuronal cell death due to Aβ. The right and left graphs show the cell viabilities determined by WST-8 assays and Calcein fluorescence assays, respectively.
C) The neutralizing antibodies (1 μg) for the mouse gp130, mouse LIFR, mouse IL-11R and rat CNTF-R were added as in the above A), and cell viability was determined by Calcein fluorescence assays after 72 hours.
WST-8 assay was performed at 72 hrs after the treatment.
The primary culture of mouse cortical neurons was prepared as described previously (Sudo et al., 2000). Briefly, primary cortical neurons, obtained from embryonic day 14 (E14) ICR mice were seeded in poly-L-lysine-coated 96 well plates (Sumitomo Bakelite) at 2.5 or 5.0×10^4 cells/well in Neuron Medium (Sumitomo Bakelite) (Hashimoto et al., 2003; Niikura et al., 2004). Purity of neurons by this method was >98%. After 3 days, the culture medium was replaced with DMEM with N2 supplement. On the fourth day in vitro, 25 μM of Aβ (1-42) was added in association with indicated concentrations of HN or cytokines in the presence or the absence of soluble cytokine receptors or neutralizing antibodies. At 72 hrs after the onset of treatment, cell viability was assessed by WST-8 assay and/or Calcein fluorescence assay and cell mortality was assessed by the Trypan blue exclusion assay and LDH assay (Hashimoto et al, 2000, 2001 a b, 2003).

Row | Molecule | effect on HN-mediated neuroprotection (PCNs) | inhibition of neurotoxicity by Aβ
1 | recombinant soluble human gp130: recombinant soluble human gp130 consisting of the extracellular domain of human gp130; dominant-negative form (protein, UniProt P40189 23-619, looked up, extracellular domain, recombinant soluble human gp130 consisting of the extracellular domain of human gp130; dominant-negative form) extracellular domain: ELLDPCGYISPESPVVQLHSNFTAVCVLKEKCMDYFHVNANYIVWKTNHFTIPKEQYTIINRTASSVTFTDIASLNIQLTCNILTFGQLEQNVYGITIISGLPPEKPKNLSCIVNEGKKMRCEWDGGRETHLETNFTLKSEWATHKFADCKAKRDTPTSCTVDYSTVYFVNIEVWVEAENALGKVTSDHINFDPVYKVKPNPPHNLSVINSEELSSILKLTWTNPSIKSVIILKYNIQYRTKDASTWSQIPPEDTASTRSSFTVQDLKPFTEYVFRIRCMKEDGKGYWSDWSEEASGITYEDRPSKAPSFWYKIDPSHTQGYRTVQLVWKTLPPFEANGKILDYEVTLTRWKSHLQNYTVNATKLTVNLTNDRYLATLTVRNLVGKSDAAVLTIPACDFQATHPVMDLKAFPKDNMLWVEWTTPRESVKKYILEWCVLSDKAPCITDWQQEDGTVHRTYLRGNLAESKCYLITVTPVYADGPGSPESIKAYLKQAPPSKGPTVRTKKVGKNEAVLEWDQLPVDVQNGFIRNYTIFYRTIIGNETAVNVDSSHTEYTLSSLTSDTLYMVRMAAYTDEGGKDGPEFTFTTPKFAQGEIE | complete suppression | 
2 | CT-1: mouse cardiotropin-1, recombinant cytokine (protein, UniProt Q60753 1-203, looked up) Cardiotrophin-1: MSQREGSLEDHQTDSSISFLPHLEAKIRQTHNLARLLTKYAEQLLEEYVQQQGEPFGLPGFSPPRLPLAGLSGPAPSHAGLPVSERLRQDAAALSVLPALLDAVRRRQAELNPRAPRLLRSLEDAARQVRALGAAVETVLAALGAAARGPGPEPVTVATLFTANSTAGIFSAKVLGFHVCGLYGEWVSRTEGDLGQLVPGGVA |  | did not inhibit
3 | IL-11: recombinant cytokine of the IL-6 family (protein, UniProt P47873 22-199, looked up) Interleukin-11: PGPPAGSPRVSSDPRADLDSAVLLTRSLLADTRQLAAQMRDKFPADGDHSLDSLPTLAMSAGTLGSLQLPGVLTRLRVDLMSYLRHVQWLRRAGGPSLKTLEPELGALQARLERLLRRLQLLMSRLALPQAAPDQPVIPLGPPASAWGSIRAAHAILGGLHLTLDWAVRGLLLLKTRL |  | did not inhibit
4 | OSM: human OncostatinM, recombinant cytokine (protein, UniProt P13725 26-221, looked up) Oncostatin-M: AAIGSCSKEYRVLLGQLQKQTDLMQDTSRLLDPYIRIQGLDVPKLREHCRERPGAFPSEETLRGLGRRGFLQTLNATLGCVLHRLADLEQRLPKAQDLERSGLNIEDLEKLQMARPNILGLRNNIYCMAQLLDNSDTAEPTKAGRGASQPPTPTPASDAFQRKLEGCRFLHGYHRFMHSVGRVFSKWGESPNRSRR |  | did not inhibit

Reference: patent publication US8173771B2, “Humanin receptor or humanin-like polypeptide receptor” (Keio Univeristy, priority 2005, dated 2012)
